Read-outs that look alike come from different tables or passages of the source.
Columns and labels:
[1] = biological target: Recombinant Tic40s with a carboxyl-terminal histidine tag (40 kDa form) (Brassica napus); experiment: AUC
[2] = biological target: Recombinant Tic40s with a carboxyl-terminal histidine tag (40 kDa form) (Brassica napus); experiment: AUC; remark: listed apart in the source
[3] = biological target: 31 kDa recombinant Tic40s form (Brassica napus); experiment: dynamic light scattering
[4] = biological target: 31 kDa recombinant Tic40s form (Brassica napus); experiment: dynamic light scattering; remark: listed apart in the source

Substance | stoichiometry N [1] | stoichiometry N [2] | stoichiometry N [3] | stoichiometry N [4]
Recombinant Tic40s with a carboxyl-terminal histidine tag (40 kDa form) (domain or fragment) | 4 | 3 | – | –
31 kDa recombinant Tic40s form (domain or fragment) | – | – | 4 | 2
